Values belong to the molecule of their own block, whether it stands above or below them.
Assays:
[1] = biological target: HcRed; assay: SEC; Superdex S200 10/30, 100 µl of 1 mg/ml applied, 20 mM Tris-HCl pH 8.0, 300 mM NaCl, column calibrated with molecular weight standards; self-association
[2] = biological target: Rtms5^S125R/F162P (Montipora efflorescens); assay: SEC; gel filtration, data not shown; self-association
[3] = biological target: Rtms5^S125R/F162P (Montipora efflorescens); assay: AUC; sedimentation velocity, 20°C, 300 mM NaCl, 20 mM Tris pH 8.0, samples at 0.1 mg/ml and 1.0 mg/ml, 40,000 rpm; self-association
[4] = biological target: Rtms5^F162R (Montipora efflorescens); assay: SEC; Superdex S200 10/30, 100 µl of 1 mg/ml applied, 20 mM Tris-HCl pH 8.0, 300 mM NaCl, column calibrated with molecular weight standards; self-association
[5] = biological target: Rtms5^S125R (Montipora efflorescens); assay: as above
[6] = biological target: the molecule itself; assay: AUC; sedimentation velocity, 20°C, 300 mM NaCl, 20 mM Tris pH 8.0, samples at 0.1 mg/ml and 1.0 mg/ml, 40,000 rpm; self-association

- stoichiometry N [1]: 2
Molecule: HcRed

- stoichiometry N [2]: 2
- stoichiometry N [3]: 2
Molecule: Rtms5^S125R/F162P (natural protein)

- stoichiometry N [4]: 2
Molecule: Rtms5^F162R (natural protein)

- stoichiometry N [5]: 2
Molecule: Rtms5^S125R (natural protein)

B1: Rtms5 (natural protein)
chain: MSVIATQMTYKVYMSGTVNGHYFEVEGDGKGRPYEGEQTVKLTVTKGGPLPFAWDILSPQCQYGSIPFTKYPEDIPDYVKQSFPEGFTWERIMNFEDGAVCTVSNDSSIQGNCFTYHVKFSGLNFPPNGPVMQKKTQGWEPHSERLFARGGMLIGNNFMALKLEGGGHYLCEFKTTYKAKKPVKMPGYHYVDRKLDVTNHNKDYTSVEQCEISIARKPVVA
notes: Cloned in pQE9N; also called wildtype Rtms5; source: E. coli BL21-DE3 (pQE9N:Rtms5), purified (Ni-NTA)
- stoichiometry N [6]: 4

— article PMC3397996, “Ultramarine, a Chromoprotein Acceptor for Förster Resonance Energy Transfer” (PLoS ONE, 2012)
